Source: patent publication US20210244795A1

Experiments:
Experiment in all cases: cell-based or functional assay
[1] = biological target: HIV envelope gp160 of CH119 (pseudotyped virus) (HIV)
[2] = biological target: HIV envelope gp160 of 246F3 (pseudotyped virus) (HIV)
[3] = biological target: HIV envelope gp160 of X1632 (pseudotyped virus) (HIV)
[4] = biological target: SIVmac239 envelope (pseudotyped virus, tier 3 isolate) (SIV)
[5] = biological target: HIV envelope gp160 of X2278 (pseudotyped virus) (HIV)
[6] = biological target: HIV envelope gp160 of CNE8 (pseudotyped virus) (HIV)
[7] = biological target: HIV envelope gp160 of 398F1 (pseudotyped virus) (HIV)
[8] = biological target: HIV envelope gp160 of 25710 (pseudotyped virus, Tier 2, clade C) (HIV)
[9] = biological target: HIV envelope gp160 of TRO11 (pseudotyped virus) (HIV)
[10] = biological target: HIV envelope gp160 of BJOX2000 (pseudotyped virus) (HIV)
[11] = biological target: HIV envelope gp160 of CNE55 (pseudotyped virus) (HIV)
[12] = biological target: HIV envelope gp160 of CE0217 (pseudotyped virus) (HIV)
[13] = biological target: HIV envelope gp160 of CE1176 (pseudotyped virus) (HIV)

Substance	IC50, pseudovirus neutralization, TZM-bl assay, mouse sera [1]	IC50, pseudovirus neutralization, TZM-bl assay, mouse sera [2]	IC50, pseudovirus neutralization, TZM-bl assay, mouse sera [3]	IC50, pseudovirus neutralization, TZM-bl assay, mouse sera [4]	IC50, pseudovirus neutralization, TZM-bl assay, mouse sera [5]	IC50, pseudovirus neutralization, TZM-bl assay, mouse sera [6]	IC50, pseudovirus neutralization, TZM-bl assay, mouse sera [7]	IC50, neutralization of 25710 pseudovirus, TZM-bl assay, mouse sera [8]	IC50, pseudovirus neutralization, TZM-bl assay, mouse sera [8]	IC80, neutralization of 25710 pseudovirus, TZM-bl assay, mouse sera [8]	IC50, pseudovirus neutralization, TZM-bl assay, mouse sera [9]	IC50, pseudovirus neutralization, TZM-bl assay, mouse sera [10]	IC50, pseudovirus neutralization, TZM-bl assay, mouse sera [11]	IC50, pseudovirus neutralization, TZM-bl assay, mouse sera [12]	IC50, neutralization of CE1176 pseudovirus, TZM-bl assay, mouse sera [13]	IC50, pseudovirus neutralization, TZM-bl assay, mouse sera [13]	fold drop in IC50 against ReCD4-Ig without sulfation [8]	fold drop in IC80 against ReCD4-Ig without sulfation [8]	fold drop in IC50 against ReCD4-Ig without sulfation [13]
ReCD4-Ig (expressed from p-ReCD4-Ig alone, no co-delivered sulfotransferase) (Fc fusion)	< 5 µg/mL	< 5 µg/mL	< 5 µg/mL	< 5 µg/mL	< 5 µg/mL	< 5 µg/mL	< 5 µg/mL	1.09 µg/mL	< 5 µg/mL	3.27 µg/mL	< 5 µg/mL	< 5 µg/mL	< 5 µg/mL	< 5 µg/mL	0.57 µg/mL	< 5 µg/mL			
ReCD4-Ig sulfated by co-expressed IgE-TPST2 (Fc fusion)	< 5 µg/mL	< 5 µg/mL	< 5 µg/mL		< 5 µg/mL	< 5 µg/mL	< 5 µg/mL	0.16 µg/mL	< 5 µg/mL	1.35 µg/mL	< 5 µg/mL	< 5 µg/mL	< 5 µg/mL	< 5 µg/mL	0.05 µg/mL	< 5 µg/mL	6.8 fold	2.4 fold	10 fold
